Measured values: publication PMC8993888

Experiments:
[1] = biological target: Ag43^EDL933 α-domain (α^43_EDL933), complete passenger domain with the autochaperone domain, from EHEC O157:H7 EDL933 (E. coli O157:H7 EDL933 (EHEC)); assay: AUC; sedimentation velocity, 2.2 mg/mL, 25 mM HEPES, 150 mM NaCl, pH 7.0, 20 °C, 40,000 rpm, absorbance at 285 nm, c(s) analysis; monomer to dimer
[2] = biological target: Ag43^UTI89 α-domain (α^43_UTI89), complete passenger domain with the autochaperone domain, from UPEC UTI89 (E. coli UTI89 (UPEC)); assay: as above
[3] = biological target: Ag43a α-domain (α^43a) from UPEC CFT073 (E. coli CFT073 (UPEC)); assay: as above
[4] = biological target: Ag43b α-domain (α^43b) from UPEC CFT073 (E. coli CFT073 (UPEC)); assay: AUC; sedimentation velocity; α^43b sample concentrated above 30 mg/ml prior to AUC analysis (Supplementary Fig. 7); monomer to dimer

“Ag43^EDL933 α-domain (α^43_EDL933), complete passenger domain with the autochaperone domain, from EHEC O157:H7 EDL933 (domain or fragment)” gave a stoichiometry N [1] of 2.

Substance “Ag43^UTI89 α-domain (α^43_UTI89), complete passenger domain with the autochaperone domain, from UPEC UTI89 (domain or fragment)” has a stoichiometry N [2] of 2.

Substance “Ag43a α-domain (α^43a) from UPEC CFT073 (domain or fragment)” has a stoichiometry N [3] of 2.

Substance “Ag43b α-domain (α^43b) from UPEC CFT073 (domain or fragment)” has a stoichiometry N [4] of 2.
